The record followed here is article PMC1807978.

Common to all, as to assay: EMSA
(A gel shift assay detects complexes by their altered migration in electrophoresis.)

The target of data set [1] is 4cFH (4cZf-M.HpaII F35H) (synthetic zinc finger; prokaryotic Mtase) (UniProt P15446).
Data set [2] concerns the target T1, M.HpaII wild type (no zinc finger) (UniProt P15446).
T1 sequence: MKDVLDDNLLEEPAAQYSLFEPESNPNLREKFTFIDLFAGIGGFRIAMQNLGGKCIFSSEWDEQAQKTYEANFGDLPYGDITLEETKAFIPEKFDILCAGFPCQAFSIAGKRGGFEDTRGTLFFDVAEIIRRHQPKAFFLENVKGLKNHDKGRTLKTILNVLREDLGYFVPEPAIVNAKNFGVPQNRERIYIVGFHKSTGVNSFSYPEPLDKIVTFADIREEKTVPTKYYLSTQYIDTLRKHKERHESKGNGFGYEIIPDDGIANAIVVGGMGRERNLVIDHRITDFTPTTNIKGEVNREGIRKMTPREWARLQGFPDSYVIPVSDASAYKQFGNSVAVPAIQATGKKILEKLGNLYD

The target of data set [3] is 4bFH (4bZf-M.HpaII F35H) (synthetic zinc finger; prokaryotic Mtase) (UniProt P15446).

Turning to “TGGCCACGCCACTCCCCAGGCTCCATTCCAGGCCGGCGCAATGCTAGACTCGACGCGGCGCTCGTTGCCA (double strand) [Tb/c]”, the Kd in data set [1] is 3 nM; in data set [2] it was 170 nM; in data set [3], 38 nM.

In general, Kd refers to a measure of binding affinity in units of concentration. Low readings indicate higher affinity, high ones lower affinity.
